Source: PMC4374775, “New Insights on the Mechanism of the K^+-Independent Activity of Crenarchaeota Pyruvate Kinases” (PLoS ONE, 2015)
Where two headings read alike, the source gives them in different places.

Legend:
[1] = target: T1, Thermofilum pendens pyruvate kinase (TpPK) (Thermofilum pendens, UniProt A1RX09); assay: dead-end inhibition kinetics, LDH/NADH-coupled assay, […]°C, pH […]; assay type: biochemical
T1 construct: gene Tpen_0330; full-length with N-terminal His6 tag and TEV site (23 additional residues); homotetramer

[2] = target: Thermofilum pendens pyruvate kinase (Thermofilum pendens); assay: native gel or EMSA; BN-PAGE, overnight at 4°C, 150 μg of TpPK; RMPK as molecular weight marker; native band of approximately 200 kDa
purified protein = substrate: C=C(OP(=O)(O)O)C(=O)O; assay: purified protein; conditions: Mg2+ active site; random-order binding with ADP-Mg
[3] = substrate: Nc1ncnc2c1ncn2[C@@H]1O[C@H](COP(=O)(O)OP(=O)(O)O)[C@@H](O)[C@H]1O; assay: initial velocity kinetics (Km), LDH/NADH-coupled assay; assay type: biochemical, Thermofilum pendens; conditions: Mg2+ active site; random-order binding with PEP

Molecule: O=C(O)C(=O)O [oxalate]
- Ki ([1]; read-out: K i (oxalate)): 0.05 ± 0.002 mM

Molecule: Thermofilum pendens pyruvate kinase (enzyme)
- stoichiometry N [2]: 4

Molecule: Nc1ncnc2c1ncn2[C@@H]1O[C@H](COP(=O)(O)O)[C@@H](O)[C@H]1O [AMP]
- Ki ([1]; read-out: K i (AMP)): 35 ± 1.2 mM

B1: Thermofilum pendens pyruvate kinase (TpPK) (Thermofilum pendens Hrk 5) (protein)
chain: MAKVKLVATLGPSSWSEETMKRMVAEGVNAFRLNFSHVDYARFEELAKQVRRLETPLRPLTLIADLQGPVIRLGEFAPFQVRPGDRVTFTLSSKTEEKYAVPVPNGVFFEIVREGDEVLVEGGRLAFRIVDAGPEKAVGEALLEGEVKPRKTVTVRGKDIPLPTITEKDLRDIEFSVKAGFDAIALSFVRSSSDVQRLRDILFDYGAEDVKIIAKIETKSAVEDLDSILQKSDAALVARGDLANFYGLEEIYSIQRYIISRARRFGKPSIVATQLLESMISNPLPTRSEVVDVITAVRMGADALLLAGETAAGKYPVESVYWLRRIVEEAEREPLEVEDVAPDKSDLYESIAKGVVSLAEVISGKIIAFSEKGNTARRISKFRPKAGLIVFTNDPATARYVNMIYGVRVVYDPSLSKADQNLFSKMLSKALEHNLVNLGDLVVFTSGRRRGSTDLVSVERVKSE
notes: full-length with N-terminal His6 tag and TEV site (23 additional residues); homotetramer
- Km (purified protein): 380 ± 30 µM
- Km [3]: 160 ± 10 µM
